In article PMC12377726 (Proceedings of the National Academy of Sciences of the …, 2025):
Numbering of substitutions follows the chain as printed.

B1: G001_gp1_V10_VRC01c_2021-0125 (antibody, V domains shown)
VH: QVQLVQSGAEVKKPGASVKVSCKASGYTFTGYYIHWVRQAPGQGLEWMGWLNPNSGGTNYLQKFQDRVTMTRDTSIGTAYMELSTLRSDDTAVYYCARGNSGPWAWRYWGQGTLVTVSS
VL: QSALTQPASVSGSPGQSITISCTGTSSDVGGYNSVSWYQQHPGKAPKLMIYDVSNRPSGVSNRFSGSKSGNTASLTISGLQPEDEADYYCSSYEVFGGGTKLTVL
B2: G001_gp1_V10_VRC01c_2021-0126 (antibody, V domains shown)
VH: QVQLVQSGAEVKKPGASVKVSCKASESTFTDYYMHWVRQAPGQGLEWMGWMNPNSGGTNYALKFQGRVTMTRDTSISTAYMELSRLRSDDTAVYYCATKRRGTYFDQWGQGTLVTVSS
VL: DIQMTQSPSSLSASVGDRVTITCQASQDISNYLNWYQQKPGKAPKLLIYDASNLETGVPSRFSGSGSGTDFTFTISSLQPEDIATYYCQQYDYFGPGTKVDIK
B3: G001_gp1_V10_VRC01c_2021-0127 (antibody, V domains shown)
VH: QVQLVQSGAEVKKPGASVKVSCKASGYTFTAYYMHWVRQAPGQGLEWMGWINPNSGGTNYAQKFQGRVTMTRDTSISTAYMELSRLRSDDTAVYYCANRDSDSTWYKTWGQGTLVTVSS
VL: DIQMTQSPSSLSASVGDRVTITCQASQDITNHLNWYQQKPGKAPKLLIYDASNLETGVPSSFSGSGSGTDFTFTISSLQPEDVATYYCQQYVTFGGGTKVEIK
B4: G001_gp1_V10_VRC01c_2021-0128 (antibody, V domains shown)
VH: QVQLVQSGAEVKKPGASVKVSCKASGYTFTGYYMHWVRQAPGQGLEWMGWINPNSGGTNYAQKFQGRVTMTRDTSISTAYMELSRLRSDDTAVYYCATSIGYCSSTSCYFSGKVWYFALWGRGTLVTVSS
VL: B3 VL with T30S, H32Y, K45N, S61R, S76T, V83I, V92E, G96Q, K99N, V100L
B5: G001_gp1_V10_VRC01c_2021-0130 (antibody, V domains shown)
VH: QVQLVQSGAEVKKPGASVKVSCKASGYTFTGYYMHWVRQAPGQGLEWMGWINPKSGGTNYAQKFQDWVTMTRDTSISTAYMELSRLRSDDTAVYYCARARVEPGSSWLWGYWGQGTLVTVSS
VL: B3 VL with T30S, H32Y, A51V, S61R, V83I, V92E
B6: G001_gp1_V10_VRC01c_2021-0131 (antibody, V domains shown)
VH: QVQLVQSGAEVKKPGASVKVSCEASGYTFTDYYIHWVRQAPGQGLEWMGWINPSSGGTNYAQKFQGWVTMTRDTSISTAYMELSRLTSDDTAFYYCARGLGRQWEWGYWGQGTLVTVSS
VL: DIQMTQSPPSLSASVGDRVTITCQASQDISKYLNWYQQKAGKAPKLLIYDVSNLETGVPSRFSGSGSGTDFTFTISSLQPEDIATYYCQQYEFFGQGTRLEIK
B7: G001_gp1_V10_VRC01c_2021-0132 (antibody, V domains shown)
VH: QVQLVQSGAEVKKPGASVKVSCQASGYTFTAYHMHWVRQAPGQGLEWMGWINPTSGGTNYAQKFQGRVTMTRDTSITTAYMDLTRLRSDDTAVYYCARHRGGWFFDLWGRGTLVTVSS
VL: B6 VL with P9S, K31N, A40P, K45N, V51A, T56A, F93T, R99K, K103R
B8: G001_gp1_V10_VRC01c_2021-0133 (antibody, V domains shown)
VH: QVQLVQSGPEVKKPGASVKVSCTASGFSFTGYYIHWLRQAPGPGLEWMGWINPNSGGTNYAQIFQDRVTMTRDTSISTAYMELSRLRSDDTAVYYCARVSVTTVWYFDLWGRGTLVTVSS
VL: B3 VL with T30S, H32Y, A51V, S52F, S61R, V83I, V92E
B9: G001_gp1_V10_VRC01c_2021-0134 (antibody, V domains shown)
VH: QVQLVQSGAEVKKPGASVKVSCEASGYTFTGSYMHWVRQAPGQGLEWMGWINPNSGGTNYAQKFQGRVTMTRDTSITTAYMELSRLRSDDTAVYYCATRAAATNWYFDLWGRGTLVTVSS
VL: B3 VL with T30N, P44L, E55Q, S61R, V83I, V92E, T93F, K103G
B10: G001_gp1_V10_VRC01c_2021-0135 (antibody, V domains shown)
VH: QVQLVQSGAEVKKPGASVKVSCKASGYTFTDYYMHWVRQAPGQGLEWMGWINPSSGGTNYAQKFQDWVTMTRDTSISTAYMELSRLRSDDTAVYYCATVAPAAATWGFDSWGQGTLVTVSS
VL: DIQTTQSPSSLSASVGDRVTITCQASQDISNHLNWYQQKPGKGPKLLIYDASNLKTGVPSRFSGSGSGTDFTFIISSLQPEDIATYYCQQYEFFGPGTKVDIK
B11: G001_gp1_V10_VRC01c_2021-0136 (antibody, V domains shown)
VH: QVQLVQSGAEVKKPGASVKVSCTASGYTFTGYYMHWVRQAPGQGLEWMGWINPNSGGTNYAQKFQGWVTMTRDTSINTAYMELSRLRSDDTAVYYCARARSGYSSGWYWAYWGQGTLVTVSS
VL: B3 VL with T30S, S61R, V83I, V92E, T93F, K103T
B12: G001_gp1_V10_VRC01c_2021-0137 (antibody, V domains shown)
VH: QVQLVQSGAEVKKPGASVKVSCKASGYTFTGYYMYWVRQAPGQGFEWMGWLNPNSGGTNYAQKFQGRVTMTRDTSISTAYMELSRLRSDDTAVYYCARVTSGSGWAFDYWGQGTLVTVSS
VL: B3 VL with T30S, H32N, A51V, S61R, V83I, V92G
B13: G001_gp1_V10_VRC01c_2021-0087 (antibody, V domains shown)
VH: QVQLVQSGAEVKKPGASVKVSCKASGYTFTGNYIHWVRQAPGQGLEWVGWLNPNSGGTNYAQQFQGRVTMTRDTSISTAYMELNRLRSDDTAVFYCARGLWQWEFRYWGQGTLVTVSS
VL: DIVLTQSPGTLSLSPGERATLSCRASQSVSSSNLAWYQQKPGQAPRLLIYGASSRATGIPDRFSGSGSGTDFTLTISRLEPEDCAVYYCQQYEGFGGGTKVEIK
notes: also called G001-0087
B14: G001_LD_07A_VRC01c_58 (antibody, V domains shown)
VH: QVQLVQSGAEVRKPGASVKVSCKASGYTFTDYYIHWVRQAPGQGLEWMGWINPNSGGTNYAQKFQGWVTMTRDTSISTAHMELRRLRSDDRAVYYCARGVVHSGFEFGYWGQGTLVTVSS
VL: DIQMTQSPSTLSASVGDRVTITCRASQSISNWLAWYQQKPGKAPKLLIYKASSLESGVPSRFSGSGSGTEFTLTISSLQPDDFATYYCQQYETFGQGTKVEIK
notes: also called G001-58
B15: G001_LD_07A_VRC01c_59 (antibody, V domains shown)
VH: QVQLVQSGAEVKKPGTSVKVSCKASEYTFTGYYVHWVRQAPGQGLEWMGWINPNSGGTNYAQKFQGWVTMTRDTSISTAYMELSRLKSDDTAVYYCARSDYISSWYFGYWGQGTLVTVSS
VL: EIVMTQSPATLSVSPGERATLSCRASQSVSSNLAWYQQKPGQAPRLLIYGTSTRATGIPARFSGSGSGTEFTLTISSLQSEDFAVYYCQQYETFGQGTKVEIK
notes: also called G001-59
B16: G001_gp1_V10_VRC01c_179 (antibody, V domains shown)
VH: QVQLVQSGADVKKPGASVKVSCKASGYTFTDYYMHWVRQAPGQGLEWMGWINPNSGGTNYAQKFQDRVTMTRDTSVSTAYMEVSGLRSDDTAVYYCARIKLCNGGSCNWSLGYWGQGSLVTVSS
VL: B10 VL with T4M, H32Y, G43A, D50G, K55E, I74T
notes: also called G001-179

What follows are binders tested against eOD-GT8 (engineered outer domain germline-targeting version 8), monomer (HIV-1 gp120 engineered outer domain, …) (assay: not given). Settings: not given.
B1: binds.
B2: binds.
B3: binds.
B4: binds.
B5: binds.
B6: binds.
B7: binds.
B8: binds.
B9: binds.
B10: binds.
B11: binds.
B12: binds.

These binders were tested against eOD-GT8 (engineered outer domain germline-targeting version 8), monomer (HIV-1 gp120 engineered outer domain, …) (assay: SPR). Settings: both partners purified.
B13 was tested, and the Kd was 0.15 nM.
For B14, the Kd was 0.437 nM.
In the case of B15, the Kd is reported as 1.76 nM.
B16 gave a Kd of 0.13 nM.
